According to the supplement of paper PMC9170038:

System: MS2 coat protein
Assay: apparent KD of MS2 coat protein; higher = weaker reporter binding
Conditions: Eterna round: R107
Experimental: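 RNA-MaP round R107: designed RNA switches with theophylline, tryptophan, arginine or FMN aptamers are transcribed on-chip within common flanks. They are titrated with SNAP-549-labelled MS2 coat protein in RNA-MaP buffer (100 mM Tris pH 7.5, 80 mM KCl, 4 mM MgCl2), without ligand or with the indicated ligand. Median apparent KD per design.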

[1] = input ligand: theophylline 20 uM
[2] = input ligand: tryptophan 2.4 mM
[3] = input ligand: theophylline 2 mM

| Sequence | apparent KD of MS2 coat protein (input ligand: arginine 13.2 mM) | apparent KD of MS2 coat protein [1] | apparent KD of MS2 coat protein [2] | apparent KD of MS2 coat protein (input ligand: none) | apparent KD of MS2 coat protein [3] |
| --- | --- | --- | --- | --- | --- |
| AUGCACCUCGUCCAGGCAAUCUUUAGUGAUACCAGCUAACUCCUUGGCCCUUGGCAGCACAUGAGGAUCACCCAUGUGCGACAUC [Tidile] | 11.1 nM | 14.9 nM | 13.9 nM | – | – |
| AAAUUAUCGGCGGCCGCCACUAGAGUUAGGCUUAUGUACUGGGUAACAUGAGGAUCACCCAUGUAUAGGACCGGGCCAUAAUAAA [Same State - Tryptophan B (Freestyle 4)] | 38.7 nM | 88.9 nM | 72.1 nM | 55.2 nM | 57.5 nM |
| AUUGUCAAGUCGGCCGCCACUUCUGCCAUGGCCACCAGUCGACAUGAGGAUCACCCAUGUCUCUUAAGGACCGGGACUUUCAAUU [theeternabot_sameState_MS2_Trp_B_6] | 13.1 nM | 16 nM | – | – | 13.9 nM |
| AAGAUACUCUGAAGGAGCGGCAUAAAACAUGAGGAUCACCCAUGUGCGCGGGUGUAAUUAUGCCAGGUAGGUCGCAGAGUAUUUA [#03 Same State - Arginine B] | 168 nM | 373 nM | 412 nM | 401 nM | 629 nM |
| ACGCUGAUUGAUUACAAUCAGCGAAAAGAUACCAGUGGGUAAUCCCACCCUUGGCAGCUUAAACAUGAGGAUCACCCAUGUGGUA [TheoAS 14 #MS2Right #BothOrNeither #AlternativeMS2] | 79.9 nM | 146 nM | 126 nM | – | – |
| AAUGUGAUAGUCGUACUCUCACACUGAGAAGGAGCGCGAAAGUUCGCAGGUAGGUCGCUCAGUUAUACAUGAGGAUCACCCAUGU [Edgeised] | 21.9 nM | 26.8 nM | 20.9 nM | 21 nM | 27.3 nM |
| AAGCGCACAUGAGGAUCACCCAUGUGCGGCCGAGGACCGGUACGGCCGCCACUCGGAACUAGAAAUAGGAACGGGUAGUGCGCAA [TryptophanA Sol_1] | 10.6 nM | 13.3 nM | 10.9 nM | 11.7 nM | 13.6 nM |
| UUUACAUGAGGAUCACCCAUGUGCCAUGAUACCAGACAUGAAAAUGUCCCUUGGCAGCAUGAAUGAUUCAUAGGAUAAUUAUGGG [Obrany] | 69.4 nM | 146 nM | 80.9 nM | – | – |
| AUUACAUGAGCAUCAGCACAUGAGGAUCACCGAGGACCGGUACGGCCGCCACUCGACACAUGAGGAUCACCCAUGUGUUGUUGUU [Exclusion Tryptophan A 3] | 24.6 nM | 345 nM | – | – | 281 nM |
| AUUUUCAUGGUCAUAUAUAUAUCUUCAGAUACCAGACUAUAUUAAGUCCCUUGGCAGCUGUUACAUGAGGAUCACCCAUGUUAUA [JR_ExcTheophyA_Sub013] | 40.1 nM | 65.3 nM | 78 nM | – | – |
| UGUAUGUGAUUUGAUACCAGACCAGCUGGUGGUACACGAGGAUCACCCGUGUAGGUUUGGGUCCCUUGGCAGCAAAUCGCAUACU [SS Theo B #24 Ms3] | 53.7 nM | 68.7 nM | 54.5 nM | 56.8 nM | 18.1 nM |
| AAUCAUGGAAACAUGACAUGAGGGUUACUCCGAGGACCGGUACGGCCGCCACUCGCGAGGAGGCGGACAUGAGGAUCACCCAUGU [#04 Tryptophan A Same State] | 32.4 nM | 240 nM | 41.6 nM | 392 nM | 260 nM |
| CGUACAUGAGGAUCACCCAUGUUACAUGAUACCAGACAUGAAAAUGUCCCUUGGCAGCAUGGCGCUGAUAGGGCGGGAAACCCGA [Zabovresky] | 16.6 nM | 23.2 nM | 19.7 nM | 19.2 nM | 28.7 nM |
| AAAUGAAGGCGAAGGAGCGGGAACAUGAGGAUCACCCAUGUGUAUGUAUGUAGUCAUGUAUCUCAGGUAGGUCGCGCUGUUACAU [Exclusion Arginine B 2] | 80 nM | 178 nM | 106 nM | 185 nM | 207 nM |
| ACACAUGAGGAUCACCCAUGUUCAAUAGAUACCAGUGAUACGGUGCACCCUUGGCAGCUGUUGCUGAGUGAUGGUUCCCUCGGAA [#22 SameState-TheophyllineA] | 32.9 nM | 75.6 nM | 52.5 nM | – | – |
| GAUUUAACAAAAGUUGGAUCAGUGGGUGAACGAGGACCGGUACGGCCGCCACUCGGACAUGAGGAUCACCCAUGUCCAUGUGAAA [AstrosExyTryA#19] | 47.2 nM | 167 nM | 77.1 nM | 129 nM | 121 nM |
| UUAACGAGCUGAAGGAGCGCUCCUCAACAACAUGAGGAUCACCCAUGUACACAUAAUAGGGAGCAGGUAGGUCGCAGCAGGAUGG [ss-argB-?] | 17.4 nM | 23.4 nM | 15 nM | 15.3 nM | 17 nM |
| GCUUGCUUGUAAGGUUCUGUCCGGCGUCGUCGAGGACCGGUACGGCCGCCACUCGCGCGUUUACAUGAGGAUCACCCAUGUCAUG [theeternabot_exclusion_MS2_Trp_A_49] | 34.3 nM | 38.7 nM | 47.5 nM | 40.6 nM | 35 nM |

| Sequence | apparent KD of MS2 coat protein (input ligand: arginine 13.2 mM) | apparent KD of MS2 coat protein [1] | apparent KD of MS2 coat protein [2] | apparent KD of MS2 coat protein (input ligand: none) | apparent KD of MS2 coat protein [3] |
| --- | --- | --- | --- | --- | --- |
| ACAUGAGGAUCACCCAUGUAGCCUAGGGAAGGAGCGGCAUAAAAGCCAGGUAGGUCGCCCGCAUGAGGAUCACCCAUGUCAAGGA [Same State Arginine A GF7] | 42.8 nM | 81.7 nM | 61 nM | 70 nM | 74.9 nM |
| ACAUGAGGAUCACCCAUGUAAUGGCACGAUACCAGCUGAUCCCGUGGCCCUUGGCAGCGUCCGGUGUGGUCCGCCGGGUUGGAGC [DDDMULLIN] | 28.7 nM | 39.5 nM | 27 nM | – | – |
| AGACAUGAGGAUCACCCAUGUAGCAUGGAUACCAGAUGUAGAUUAGUCCCUUGGCAGCUGUGGUAAAGUGAUGCAUUGCUCCUAG [Exclusion - Theophylline A (Freestyle 3)] | 35.2 nM | 55.3 nM | 38.8 nM | – | – |
| UCGUUUUAGUCGGCCGCCACUGUAUGCAUGUUUAACAUGAGGAUCACCCAUGUCCCGUACUAUUUCAGGACCGGGACGUAAUCGA [JR_SSTryptoB_Sub007] | 140 nM | 301 nM | – | – | 484 nM |
| GGUGGCGUGACGGAUACCAGCCACCACCGAUAGACCACAUGAGGAUCACCCAUGUUGGGUGGCCCUUGGCAGCUGUCGUGCGGCG [#1 Same State - Theophylline B Attempt #17 (HarryS)] | 82 nM | 409 nM | 220 nM | – | – |
| GGGUGGUAGGCGGCCGCCACUGAUUUUUAUUUAUAGAUGACAUGAGGAUCACCCAUGUAGAUAUGCAGGACCGGGCCUGUUGUUU [aaaO] | 16.6 nM | 22.3 nM | – | – | 19.3 nM |
| GUUGGUUUGGGAAGGAGCGGGUAUGUUGUCUACUUGAUCCUAACAUGAGGAUCACCCAUGUCCCAGGUAGGUCGCCCAAGCUUUG [12.aE] | 69.8 nM | 152 nM | 186 nM | 161 nM | 316 nM |
| CAUACUUUAGUAUGUUAUGUGGACAGUGAUACCAGAUACGAAAGUAUCCCUUGGCAGCACAACAUGAGGAUCACCCAUGUAUUUU [Theophylline A 4] | 25.8 nM | 22.2 nM | 21.5 nM | – | – |
| AUGCCUAGUGGAAGGAGCGAGGGUCUUCUCAACAUGAGGAUCACCCAUGUUCUUUUAUACCCUCAGGUAGGUCGCCAUUGGGACA [Anenre] | 27.7 nM | 33.6 nM | 34.8 nM | 28.8 nM | 25.7 nM |
| ACAUCCAGGUUAAUCGUGGACAUGGUCGAUACCAGUAUUUUAAUCUACCCUUGGCAGCGACAUGAGGAUCACCCAUGUGCGAUGA [XTheo A #14] | 13.8 nM | 17.2 nM | 14.9 nM | – | – |
| UCGACAAGAACAAUAAACAGCACUUGAGAAGGAGCGCGGAAAUCCGCAGGUAGGUCGCUCAUGUGUACAUGAGGAUCACCCAUGU [Inveonxeed] | 32.6 nM | 49.3 nM | 34.5 nM | 39.7 nM | 40.8 nM |
| AGCGACAUGCAUGAUACCAGCUACAUGAGGAUCACCCAUGUACGUCAGUAAUGACUGUGUAGCCCUUGGCAGCAUAGAGCAUGUU [Exclusion - Theophylline B (Freestyle 15)] | 15.7 nM | 29.3 nM | 16.5 nM | – | – |
| CAAGCACCAACCGAUACCAGCUUAGUAGUAUGCUCAUUAAACAUGAGGAUCACCCAUGUGAGCCCUUGGCAGCGGAUUUCCCUGC [theeternabot_exclusion_MS2_Theo_B_12] | 14.5 nM | 18.3 nM | 13.5 nM | – | – |
| UUUUAAGGGAUCGGAGCUGGUAGCAGAGAUACCAGAGUAGUAAUGCUCCCUUGGCAGCUCAGUACAUGAGGAUCACCCAUGUUUU [Exclusion Theophylline A GF26] | 16.3 nM | 21 nM | 17.9 nM | 17.6 nM | 25.3 nM |
| GUACAUGAGGAUCACCCAUGUAUAGUUGAAGGAGCGACCGGUGGGUCAGGUAGGUCGCAGCGCAUGGCGUCAACCCGUGUAUGCC [#1 Exclusion - Arginine A Attempt #27 (Inspired by Pi)] | 13.8 nM | 24.8 nM | 17.9 nM | 17.2 nM | 21 nM |
| AGGAAACAACAUGAGGAUCACCCAUGUGAUACCAGUAUCAAAAGAUACCCUUGGCAGCACACAUGACAUGAGGAUCACCCAUGUA [AstrosSSTheA#2] | 33.2 nM | 52.4 nM | 74.4 nM | – | – |
| AAACAUGAGGAUCACCCAUGUUCUCCUGUCCGAGGACCGGUACGGCCGCCACUCGGUUCUCGGGAGGAUGGUCAAAGACUAUCCA [Omei Trp A SS B v8] | 12 nM | 16.9 nM | – | – | 13.5 nM |
